Tests used:
Assay in all cases: flow cytometry on transiently transfected cells
[1] = molecular target: T1, TNFR2 on transiently transfected cells (UniProt P20333 23-461, limits assumed)
T1 construct: whole, on cells
T1 sequence (looked up): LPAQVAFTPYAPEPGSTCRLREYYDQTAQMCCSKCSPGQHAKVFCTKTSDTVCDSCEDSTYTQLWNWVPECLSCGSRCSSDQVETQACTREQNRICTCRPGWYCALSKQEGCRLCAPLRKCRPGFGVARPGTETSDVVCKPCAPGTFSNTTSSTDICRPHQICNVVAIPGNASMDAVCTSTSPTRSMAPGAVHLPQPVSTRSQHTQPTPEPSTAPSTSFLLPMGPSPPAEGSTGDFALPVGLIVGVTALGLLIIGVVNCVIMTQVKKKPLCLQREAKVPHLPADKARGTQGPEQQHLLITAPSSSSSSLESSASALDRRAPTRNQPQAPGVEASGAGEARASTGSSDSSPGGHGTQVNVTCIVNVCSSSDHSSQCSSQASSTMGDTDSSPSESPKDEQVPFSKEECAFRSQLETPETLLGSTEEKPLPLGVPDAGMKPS
Method: (§1) One million cells, in 0.1 ml of FACS buffer (PBS, 0.1% BSA, 0.1% NaN₃), were incubated with 0.1-1 microgram of protein or antibody at RT for 15 min. The cells were washed with 3 ml of FACS buffer, reacted with biotinylated primary antibody, and stained with PE-conjugated secondary antibody at RT for 15 min. Cells were then washed again, resuspended in 0.5 microgram/ml of propidium iodide, and live cells were gated and analyzed on a FACScan using the CellQuest software (BD Biosciences).

[2] = molecular target: T2, AITR on transiently transfected cells (UniProt Q9Y5U5 26-241, limits assumed)
T2 construct: whole, on cells
T2 sequence (looked up): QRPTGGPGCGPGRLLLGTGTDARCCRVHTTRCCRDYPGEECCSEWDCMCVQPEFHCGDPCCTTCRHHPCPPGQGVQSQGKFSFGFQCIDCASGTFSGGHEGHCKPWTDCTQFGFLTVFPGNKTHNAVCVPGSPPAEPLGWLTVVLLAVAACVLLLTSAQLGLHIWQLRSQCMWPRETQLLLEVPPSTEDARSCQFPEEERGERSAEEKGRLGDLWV
Method: as §1

[3] = molecular target: T3, DR5 on transiently transfected cells (UniProt O14763 56-440, limits assumed)
T3 construct: whole, on cells
Method: as §1

[4] = molecular target: T4, LT R (LTβR) on transiently transfected cells (UniProt P36941 31-435, limits assumed)
T4 construct: whole, on cells
Method: as §1

[5] = molecular target: T5, CD27 on transiently transfected cells (UniProt P26842 20-260, limits assumed)
T5 construct: whole, on cells
T5 sequence (looked up): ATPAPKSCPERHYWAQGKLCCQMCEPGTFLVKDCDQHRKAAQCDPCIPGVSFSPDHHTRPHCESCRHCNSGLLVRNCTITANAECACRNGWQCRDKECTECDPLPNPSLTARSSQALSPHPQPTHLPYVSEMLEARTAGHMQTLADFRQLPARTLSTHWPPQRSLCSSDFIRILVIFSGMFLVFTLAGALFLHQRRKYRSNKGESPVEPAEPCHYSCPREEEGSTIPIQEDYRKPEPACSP
Method: as §1

[6] = molecular target: T6, RANK on transiently transfected cells (UniProt Q9Y6Q6 30-616, limits assumed)
T6 construct: whole, on cells
T6 sequence (looked up): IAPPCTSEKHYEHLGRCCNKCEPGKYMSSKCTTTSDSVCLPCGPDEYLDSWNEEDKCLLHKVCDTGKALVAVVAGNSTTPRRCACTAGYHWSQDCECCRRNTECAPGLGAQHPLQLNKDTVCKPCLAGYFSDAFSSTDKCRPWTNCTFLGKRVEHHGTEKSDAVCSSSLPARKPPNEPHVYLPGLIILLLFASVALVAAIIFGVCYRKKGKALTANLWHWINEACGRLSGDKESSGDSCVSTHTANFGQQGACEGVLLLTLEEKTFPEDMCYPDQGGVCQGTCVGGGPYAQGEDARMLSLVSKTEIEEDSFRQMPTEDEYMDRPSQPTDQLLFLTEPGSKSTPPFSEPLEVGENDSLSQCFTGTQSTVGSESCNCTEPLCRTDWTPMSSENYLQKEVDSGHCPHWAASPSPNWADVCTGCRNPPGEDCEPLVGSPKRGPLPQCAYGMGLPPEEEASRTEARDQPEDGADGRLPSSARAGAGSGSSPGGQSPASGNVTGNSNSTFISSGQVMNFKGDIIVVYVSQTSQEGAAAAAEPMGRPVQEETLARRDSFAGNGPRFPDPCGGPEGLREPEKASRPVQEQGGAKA
Method: as §1

[7] = molecular target: T7, 4-1BB on transiently transfected cells (UniProt Q07011 24-255)
T7 construct: whole, on cells
Method: as §1

[8] = molecular target: T8, BCMA on transiently transfected cells (UniProt Q02223 1-184, limits assumed)
T8 construct: whole, on cells
T8 sequence (looked up): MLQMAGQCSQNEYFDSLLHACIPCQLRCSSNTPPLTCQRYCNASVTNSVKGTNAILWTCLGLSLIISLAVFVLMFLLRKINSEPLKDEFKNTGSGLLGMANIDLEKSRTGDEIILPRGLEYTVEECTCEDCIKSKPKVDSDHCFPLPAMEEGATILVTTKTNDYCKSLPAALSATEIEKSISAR
Method: as §1

Measured: binding result

T4 sequence (P36941 31-435 limits assumed): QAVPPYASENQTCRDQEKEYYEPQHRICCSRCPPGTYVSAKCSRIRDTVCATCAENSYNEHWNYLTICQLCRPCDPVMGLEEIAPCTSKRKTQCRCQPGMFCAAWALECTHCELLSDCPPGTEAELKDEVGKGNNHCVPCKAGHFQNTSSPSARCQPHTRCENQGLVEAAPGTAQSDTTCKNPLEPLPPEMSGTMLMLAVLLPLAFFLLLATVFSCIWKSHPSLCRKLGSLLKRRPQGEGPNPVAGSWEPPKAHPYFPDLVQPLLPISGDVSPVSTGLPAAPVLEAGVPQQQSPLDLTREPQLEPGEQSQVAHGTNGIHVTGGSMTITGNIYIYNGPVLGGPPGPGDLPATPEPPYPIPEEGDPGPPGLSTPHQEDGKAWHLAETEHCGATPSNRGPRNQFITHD
T7 sequence (Q07011 24-255): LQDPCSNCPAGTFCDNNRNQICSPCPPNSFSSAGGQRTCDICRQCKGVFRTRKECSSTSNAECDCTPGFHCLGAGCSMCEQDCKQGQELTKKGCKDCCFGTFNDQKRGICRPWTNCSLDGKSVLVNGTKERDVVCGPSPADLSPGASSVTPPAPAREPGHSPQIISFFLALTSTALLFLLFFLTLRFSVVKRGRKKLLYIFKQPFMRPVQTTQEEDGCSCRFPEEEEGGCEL

B1: FLAG-tagged soluble form of TNF-gamma-beta (aa 72-251) (ligand)
chain: LKGQEFAPSHQQVYAPLRADGDKPRAHLTVVRQTPTQHFKNQFPALHWEHELGLAFTKNRMNYTNKFLLIPESGDYFIYSQVTFRGMTSECSEIRQAGRPNKPDSITVVITKVTDSYPEPTQLLMGTKSVCEVGSNWFQPIYLGAMFSLQEGDKLMVNVSDISLVDYTKEDKTFFGAFLL
notes: also called FLAG-TL1β; FLAG-TNF-gamma-beta; not shown: FLAG tag of the pFLAG-CMV-1 vector at the amino terminus
no binding: all assays above
